Measurements: the RNAGym collection of RNA variant scans (doi:10.1073/pnas.2313332121)

B1: TPR t1 (parent)
chain: GACCAAUCUGCCCUCAGAGCUCGAGAACAUCUUCGGAUGCAGAGGAGGCAGGCUUCGGUGGCGCGAUAGCGCCAACGUCCUCAACCUCCAAUGCAUCCCACCACAUGAUGAUGCCUGAAGAGCCUUGGUUUUUUG

Variants of: B1
Experiment: polymerase ribozyme fitness, log enrichment relative to wild type (log ratio); higher = more active; in vitro selection for triplet polymerase activity
Method in brief: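 Genotype fitness is the logarithm of its enrichment divided by wild-type enrichment, using inverse-variance-weighted averages of replicates. That logarithm is base 2. Enrichment was measured by Illumina sequencing of input and output libraries from one triplicate in vitro selection round, with frozen incubation at −7 °C, on PCR-built, transcribed mutant libraries of each subunit of a heterodimeric triplet polymerase ribozyme, retaining genotypes with ≥10 input reads and ≥1 read per output.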

| Variant | polymerase ribozyme fitness (log ratio) |
| --- | --- |
| GACCAAUCUGCCCUCAGAGCUCGAGAACAUCUUCGGAUGCAGAGGAGGCGGGCUUCGGUGGUGCGAUAUCGCCAACGUCAUCAACCUCCAAUGCAUCCCACCACAUGAUGAUGCCUGAAGAGCCUUGGUUUUUUG | -3.77 |
| GACCAAUCUGCCCUCAGAGCUCGAGAACAUCUUCGGAUGCAGAGGAGGCCGGCUUCGGUGGCGCGAUAGCGCCAACGUCCUCAACGUCCAAUGCAUCCCACCACAUGAUGAUGCCUGAAGAGCCUUUGUUUUUUG | -2.12 |
| GACCAAUCUGCCCUCAGAGCUCGAGAACAUCUUCGGAUGCAGAGGAGGCGGGCUUCGGUGGCGCGAUAGCGCCAACUUCCUCAACGUCCAAUGCAUCCCACCACAUGAUGAUGCCUGAAGAGCCUUGGUUUUUUG | -1.1 |
| GACCAAUCUGCCCUCAGAGCUCGAGAACAUCUUCGGAUGCAGAGGAGGCGGGCCUCGGUGGCUCGAUAGCGCCAACGUCCUCAACCUUCAAUGCAUCCCACCACAUGAUGAUGCCUGAAGAGCCUUGGUGUUUUG | -2.9 |
| GACCAAUCUGCCCUCAGAGCUCGAGAACAUCUUCGGAUGCAGAGGAGGCCGGCUUCGGUGGCGCGAUAGCACCAACGUGCUCAACCUCCAAUGCAUCCCACCAAAUGAUGAUGCCUGAAGAGCCUUGGUUUUUUG | -5.88 |
| GACCAAUCUGCCCUCAGAGCUCGAGAACAUCUUCGGAUGCAGAGGAGGCCGGCUUCGGUGGCGCGAUAGCGCCAACGUCCUUAACCUCCAAUGCAUCCCACCACAUGAUGAUGCCUUAAGAGCCUUGGUUUUUUG | -2.93 |
| GACCAAUCUGCCCUCAGAGCUCGAGAACAUCUUCGGAUGCAGAGGAGGCCGGCUCCGGUGGCGCGAUAGCGCCAACGUCCUCAACCUCCAAUGCAUCCCACCACAGGAUGAUGCCUGAAGAGCCUUGGUUUUUUG | -2.2 |
| GACCAAUCUGCCCUCAGAGCUCGAGAACAUCUUCGGAUGCAGAGGAGGCGGGCUUCGGUGGCUCGAUAGCGCCAACGUCCUCAACCUCCAAUGCAUCCCACCACAUGAUGAUGCCUGAAGAGCCUUGGUAUUUUG | -2.47 |
| GACCAAUCUGCCCUCAGAGCUCGAGAACAUCUUCGGAUGCAGAGGAGGCCGGCUUCGGUGGCGCGAUAGCGCCAACGUCCUCAACCUCCAAUGCAUCCCACCACAAGAUAAUGCCUGAAGAGCCUUCGUUUUUUG | -3.34 |
| GACCAAUCUGCCCUCAGAGCUCGAGAACAUCUUCGGAUGCAGAGGAGGCCGGCUUCGGUGGCUCGAUAGCGCCAACGUCCACAACCUCCAAUGCAUCCCACCACAUGAUGAUGCCUGAAGAGCCUUGGUUUUUUG | -1.63 |
| GACCAAUCUGCCCUCAGAGCUCGAGAACAUCUUCGGAUGCAGAGGAGGCCGGCUUCGGUGUCGCGAUAGCGCCAACGUGCUCAACCUCCAAUGCAUCCCACCACAUGAUGAUGCCUGAAGAGCCUUGGCUUUUUG | -2.24 |
| GACCAAUCUGCCCUCAGAGCUCGAGAACAUCUUCGGAUGCAGAGGAGGCCGGCUUCGGUGGCGCGAUAGCGCCAACGUCCUCAACCCCCAAUGCAUCCCACCACAUGAUGAUGCCUGAAGAGCCUUGGUUUUUUG | -0.237 |
| GACCAAUCUGCCCUCAGAGCUCGAGAACAUCUUCGGAUGCAGAGGAGGCGGGCUUCGGUGGAGCGAUAGCGCCAACGUCCUCAACCUCCAAUGCAUCCUACCACAUGAUGAUGCCUGAAGAGCCUUGGUUUUUUG | -6.11 |
| GACCAAUCUGCCCUCAGAGCUCGAGAACAUCUUCGGAUGCAGAGGAGGCCGGCUUCGGUGGCGCGAUAGCGCCAACGUCCUCAACCUCCAAUGCAUCCCACCACAUGAUGAUGCUUGAAGAGCCUUGGUUUUUUG | -1.47 |
| GACCAAUCUGCCCUCAGAGCUCGAGAACAUCUUCGGAUGCAGAGGAGGCGGGAUUCGGUGGCGCGAUAGCGACAACGUCCUCAACCUCCAAUCCAUCCCACCACAUGAGGAUGCCUGAAGAGCCUUGGUUUUUUG | -5.37 |
| GACCAAUCUGCCCUCAGAGCUCGAGAACAUCUUCGGAUGCAGAGGAGGCCGGCUUCGGUGGCGCGAUAGCGCCAACGUCCUCAACCGCCAAUGCAUCCCACCACAUGAUGAUGCCUGAACAGCCUUGGUUAUUUG | 0.982 |
| GACCAAUCUGCCCUCAGAGCUCGAGAACAUCUUCGGAUGCAGAGGAGGCCGGCUUCGGUGGCGCGAUAGCGCCAACGUCCUCAACCUCCAAUGCAUGCCACCACAUGAUGAUGCCUGAAGAGCCUUGGUUUUUUG | -6.04 |
| GACCAAUCUGCCCUCAGAGCUCGAGAACAUCUUCGGAUGCAGAGGAGGCGAGCUUCGGUGGCGCGAUAGCGGCAACGUCCUCAACCUUCAAUGCAUCCCACCACAUGAUUAUGCCUGAAGAGCCUUGGUUUUUUG | -5.05 |
| GACCAAUCUGCCCUCAGAGCUCGAGAACAUCUUCGGAUGCAGAGGAGGCGGGCUUCGGUGGCGCGAUAGCGCCAACGUCCUCAACCUACAAUGCAUCCCACCAUAUGAUGAUUCCUGAAGAGCCUUGGCUUUUUG | -4.06 |
| GACCAAUCUGCCCUCAGAGCUCGAGAACAUCUUCGGAUGCAGAGGAGGCGGGCUUCGGUAGCGCGAUAGCGCCAACGUCCUCAACCUCCAAUGCAUCCCACCACAUGAUGAUGCCUGAAGAGCCUUGGUUUUUUG | 0.351 |
| GACCAAUCUGCCCUCAGAGCUCGAGAACAUCUUCGGAUGCAGAGGAGGCGGGCUUCGGUGGCGCGAUAGCGCCAACGUCCUCCACCUCCAAUGCAUCCCACCACAUGAUGAUGCCUGAAGAGUCUUGGUUUUUUG | -0.187 |
